Data on 8 molecules can be found in patent US11402384B2 (Duke University, priority 2015, dated 2022).

How the values of data set [1] were obtained:
Eight homologs that were predicted to be glucose-binding proteins (FIG. 4, Table 3) were selected to probe different degrees of sequence identity to the ttGBP1 seed, and their glucose-binding properties were determined experimentally. These experiments comprised four successive steps: • 1. Synthetic gene construction. The amino acid sequence of the homology leads were backtranslated into DNA sequences. These were optimized for directing heterologous cytoplasmic expression of the protein homologues in E. coli, using either the OrfOpt or OrfMorph programs. These programs predict mRNA sequences that direct high-level protein expression in E. coli. The predicted gene sequences were assembled de novo from synthetic oligonucleotides. • 2. Heterologous protein expression of the homologues in E. coli. Plasmids carrying the synthetic expression constructs (see above) were transformed into KRX competent cells (Promega). Protein production was induced in bacterial cultures of these cultures, as described in the Materials and Methods. • 3. Purification of successfully expressed protein using immobilized metal affinity chromatography. • 4. Verification of glucose binding. Determination of the glucose-binding properties of the purified proteins using a thermal stability shift assay.
Analysis of glucose-binding properties using thermal melts. The thermal stability of purified GBP candidate proteins was determined by measuring the temperature-dependence of the fluorescence signal of an extrinsically added dye, SYPRO, using a Roche LightCycler (Layton and Hellinga, 2010, Biochemistry, 49, 10831-41). The total fluorescence intensity, S, is given by S=βFfF+βUfU 11 where fF and fU are the fractions of protein in the folded and unfolded states, respectively, and βF and βU the fluorescence baselines of these two states. To get the fractions of the two states, we have
[formula] where KU(T) is the temperature-dependent unfolding equilibrium constant, which by the van't Hoff approximation is given by
[formula] Where T is the temperature, Tm, the unfolding reaction transition mid-point temperature, and ΔHU the enthalpy of unfolding.

Data set [2] in a line: Ratiometric fluorescence glucose titration of fluorescent conjugates. Type of data set: binding. Further details: key to Shape (fluorescence response to glucose) / Change (fluorescence response to glucose): m, monochromatic; d, dichromatic (i.e. spectral shape change); 0, no change. The conditions noted are these: tsGBP 13C affinity mutants, Acrylodan or Badan conjugates. In outline:
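Single-cysteine glucose-binding protein mutants labelled site-specifically with thiol-reactive environmentally sensitive fluorophores; emission spectra recorded during glucose titration to detect ligand-mediated intensity and spectral-shape changes for ratiometric read-out. Temperature- and ligand-dependent fluorescence landscapes acquired in 1K steps; binding fitted to single-site fractional saturation.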

Where [3] appears, read: ligand-free protein, SYPRO Orange, Roche LightCycler.

Read-outs that look alike come from different tables or passages of the source. Marks after values point to notes of the source that are not given here.

B1: smGBP7: glucose-binding protein from Staphylothermus marinus, SEQ ID NO: 15 (protein)
chain: MELVIYHWWTAGGEREAINAVFQVFKQKYPNIQIVENPVAGGAGSVMKSVIIGLLAAGTPPDTFQVHAGAELKEYVDAGYLAPIDDIWSKLGLDKVIPSTLQVMAKFNGHYYAVPIDVHRSNVLWYNPKIFNELGIINKFGDPRNWSVDTLLQVARYIKQQRPDIAPIALASRNKWPVTHLFEVLLANAGGPETYVKFFTGKFNYNDPNDPVVQTVKKVLTVMATMAKEGLFNSNHPELTWDQAAALVAEGKAAMFIHGDWVAGYYIANNYKYGKDWAAAPFPKNIFILLSDAFELPKNAPHPEAAKDWLMVVGSKEAQEKFNLIKGSIPARTDVSPKYPDPYRPETAEDFQKSTLIPSAVHGGIAKEAFMTDLHNILTSMLTAVSVGTPVDNAVNTALAQILQSVKTSGLASFWKGYTIDYFITKRGGSHHHHHH
modifications: smGBP7 (with signal peptide replaced with M and a GGSHHHHHH at C-terminus)
Regarding B1, in data set [1] (determined using fluorescent Acrylodan and/or Badan conjugates), the “Thermostability ^apoTm” value is 40^f ° C.

B2: bhGBP6: glucose-binding protein from Bacillus halodurans, SEQ ID NO: 14 (protein)
chain: MLEIFSWWTGAGEEDGLLALIELFEEKHPEIEVDNAAVAGGAGTNAKAVLTSRMQGNDPPGTFQVHGGAELNDSWVAAGQMDPLNDLFEAEGWADKFPEELIELVSKDGNIYSVPVNIHRGNVLWYNTEIFEEHGLEVPTTFEEFFDVADALQEAGVTPLALGDREPWAATHLFETVLLGTLGADDYNKLWSGEVGMDDPRVEEAAEIFIRMLDYVNEDHSSRNWQDASQLVAQGEAAMNVMGDWAKGYFVNDLNLAVKEDFGWAATPGTEGTFMVITDTFGLPTGVENPEVVKSFLAVLGSQEGQDAFNPLKGSIPARVDADVSKYDEYGQETIEDFKSAELSPSLAHGSAANEGFLTQVNQAINIFVTQKDVDSFVDSLKQYQPGGSHHHHHH
modifications: bhGBP6 (with signal peptide replaced with M and a GGSHHHHHH at C-terminus)
On to B2, for which the “Thermostability ^apoTm” value in data set [1] (setting [3]) turned out to be 53 °C.

B3: D278L A: tsGBP2.13C.D278L (SEQ ID NO: 52) Acrylodan conjugate (conjugate)
chain: MKLEIFSWWAGDCGPALEALIRLYKQKYPGVEVINATVTGGAGVNAKAVLKTRMLGGDPPDTFQVHAGQELIGTWVVADRMEDLTSLFRQEGWLQAFPKGLIDLLSYKGGIWSVPVNIHRSNVMWYIPAKLKEWGVTPPKTWAEFLATAQTLKRKGLEAPLALGENWTQQHLWESVALATLGADGWNNLWSGKLKFTDPKAVAVWETFGKVLDAANKDAAGLSWQQAVDRVVQGKAAFNIMGDWAAGYMSTTLKLKPGTDFAWTPSPGTSGIFMMLSLSFGLPKGAKNRQNAINWLKLVGSKEGQDTFNPLKGSIAARLDSDPAKYNAYGQSAMKDWKSNRIVGSLVHGAVAPESFMSQFGTVMEIFLQSRNPQAAANAAQAIANQVGLGRGGSHHHHHH
modifications: Acrylodan conjugate; tsGBP2.13C.D278L (13C, 278L double substitution mutant with signal peptide replaced with M and a GGSHHHHHH at C-terminus)
For B3, the “Change (fluorescence response to glucose)” value (“Change” for short) in data set [2] was “m”.

B4: K312M B: tsGBP2.13C.K312M (SEQ ID NO: 53) Badan conjugate (conjugate)
chain: MKLEIFSWWAGDCGPALEALIRLYKQKYPGVEVINATVTGGAGVNAKAVLKTRMLGGDPPDTFQVHAGQELIGTWVVADRMEDLTSLFRQEGWLQAFPKGLIDLLSYKGGIWSVPVNIHRSNVMWYIPAKLKEWGVTPPKTWAEFLATAQTLKRKGLEAPLALGENWTQQHLWESVALATLGADGWNNLWSGKLKFTDPKAVAVWETFGKVLDAANKDAAGLSWQQAVDRVVQGKAAFNIMGDWAAGYMSTTLKLKPGTDFAWTPSPGTSGIFMMLSDSFGLPKGAKNRQNAINWLKLVGSKEGQDTFNPLMGSIAARLDSDPAKYNAYGQSAMKDWKSNRIVGSLVHGAVAPESFMSQFGTVMEIFLQSRNPQAAANAAQAIANQVGLGRGGSHHHHHH
modifications: Badan conjugate; tsGBP2.13C.K312M (13C, 312M double substitution mutant with signal peptide replaced with M and a GGSHHHHHH at C-terminus)
As for B4, the Kd was 26 mM in data set [2] (read-out: Glucose affinity ^appKd) and 39 mM in data set [2] (read-out: Glucose affinity ^trueKd). In addition, in data set [2], the “Change” value is given as “m”.

B5: D278L B: tsGBP2.13C.D278L (SEQ ID NO: 52) Badan conjugate (conjugate)
chain: MKLEIFSWWAGDCGPALEALIRLYKQKYPGVEVINATVTGGAGVNAKAVLKTRMLGGDPPDTFQVHAGQELIGTWVVADRMEDLTSLFRQEGWLQAFPKGLIDLLSYKGGIWSVPVNIHRSNVMWYIPAKLKEWGVTPPKTWAEFLATAQTLKRKGLEAPLALGENWTQQHLWESVALATLGADGWNNLWSGKLKFTDPKAVAVWETFGKVLDAANKDAAGLSWQQAVDRVVQGKAAFNIMGDWAAGYMSTTLKLKPGTDFAWTPSPGTSGIFMMLSLSFGLPKGAKNRQNAINWLKLVGSKEGQDTFNPLKGSIAARLDSDPAKYNAYGQSAMKDWKSNRIVGSLVHGAVAPESFMSQFGTVMEIFLQSRNPQAAANAAQAIANQVGLGRGGSHHHHHH
modifications: Badan conjugate; tsGBP2.13C.D278L (13C, 278L double substitution mutant with signal peptide replaced with M and a GGSHHHHHH at C-terminus)
As to B5, the “Change” value in data set [2] is on record as 0.

B6: asGBP8: glucose-binding protein from Arthrobacter sp., SEQ ID NO: 16 (protein)
chain: MKLEITSWWTSGSEADALNVLIDGVKAAKPGLSVDNAAVSGGGGANARQALAARLQAGSPPDAWQVHPAGQLKSYVDGGQVADLTDLWTEGDWASQMPKDVAEAQQVDGKYYTVPIGVHRGNVLWTNPAVLSKANVTIDADAGIDGLISSLEQVQASGTTPLALGDKDIFASSQLLESLIMSRAGADNWTKLFTSEYSFDAPEVKQALEDYKTILSFANKDHSAITWDEAAKKMADGEAAVNLMGDWAYGELLNAGKKPGTDFAWVAFPGKEDIFDYVGDGFSIPANNIPHAEAARAWLKTLMDPKIQTEFAAKKGSIPAVTSADISGLSEYQQEAAKSLASGAVVSSLAHAQAAGAEFAQTYADAVSTFNGSGNTDAFIASMTQAQKTQLGGSHHHHHH
modifications: asGBP8 (with signal peptide replaced with M and a GGSHHHHHH at C-terminus)
For B6, the “Thermostability ^apoTm” value in data set [1] (setting [3]) was 58 °C.

B7: tnGBP4: glucose-binding protein from Thermotoga neapolitana, SEQ ID NO: 12 (protein)
chain: MLEIFSWWTAGGEAEALEALIKVFNKYYPDVEVINATVAGGAGTNAKAVLKTRILGGNPPDSFQVHAGMELIDTYVIPGYMTPITNLLEQWGVMDKFPKGILEMASYEGEIYSIPVNVHRGNVVFYNKKIAEEIGMNEPPKTWDEFIMYLQKAKEKGYVGLALGDKNKWTALHLFETILLGVLGPNDYNGLWKGEVSFNDPRIRRAFEIMNKLLDYVNEDHAALAWQDATRLVYEGKALANVMGDWAEGYLKSVGWEPGKDFGWFAVPETQNAFMVVSDTFGLPKNAPHKENAVKWLKVVASVEGQDAFNPIKGSIPARLDADRSKYDIYLQWSMEDFATKALTPSIAHGSAAPEGFVTTLNDIINRFVTTRDIDSALEELLMAAEDEGYLVEGGSHHHHHH
modifications: tnGBP4 (with signal peptide replaced with M and a GGSHHHHHH at C-terminus)
For the molecule B7, in data set [1] (setting [3]), the “Thermostability ^apoTm” value is greater than 100 °C.

B8: koGBP5: glucose-binding protein from Kosmotoga olearia, SEQ ID NO: 13 (protein)
chain: MLEIFSWWTGGGEEEGLLALFDVFHKYYPDVEIINATVAGGAGTNAKAVLKTRMLGGNPPDSFQVHGGMELIDTYVVTGMMEPITDLLEEWGIIDKFPEDILKIASYKGEVYSIPVNVHRGNVVFYNKAILEEVGIEKVPSTWPEFIEVLKKIKKAGYIPLALGDKNKWTATHLFEDILLSTLGPYNYNGLWNGRTSFEHQGVKEALEIFKELMNYVNPNHASLTWQDATLLVFEGKAAFNVMGDWAEGYLKTLGWTPGKEFGWMVVPGTKGSFMVVTDTFGLPKNAPHRENAIKWLKIISSVEGQDTFNPIKGSIPARIDADRSLYDDYLIWSMDDFATNALCPSIIHGSAAPEAFVTALNDTINMFITRKDVKKALKEIIYAAEDYLEGGSHHHHHH
modifications: koGBP5 (with signal peptide replaced with M and a GGSHHHHHH at C-terminus)
For B8, in data set [1] (setting [3]), the “Thermostability ^apoTm” value is greater than 100 °C.
